Laboratory results: publication PMC5774872

B1: unnamed (parent)
chain 1: MSAAILLAPGDVIKRSSEELKQRQIQINLVDWMESEGGKEDKTEPKEESKAEGSKDGEGTQSESGQKEEGGKETKDADVDRRIHTAVGSGSGTKGSGERANENANRGDGKVGGGGGDADAGVGATGTNGGRWVVLTEEIARAIESKYGTKIDVYRDEVPAQIIEVERSLQKELGISREGVAEQTERLRDLRRKEKNGTHAKAVERGGRKQRKKAHGDAQREGVEEEKTSEEPARIGITIEGVMSQKKLLSMIGGVERKMAPIGARESAVMLVSNSIKDVVRATAYFTAPTGDPHWKEVAREASKKKNILAYTSTGGDVKTEFLHLIDHL
chain 2: MAAQNEQRPERIKTTPYLEGDVLSSDSGPLLSVFALQEIMQKVRQVQADYMTATREVDFTVPDVQQILDDIKALAAAQVYKIVKVPSTSFRHIVTQSRDRVLRVDTYYEEMSQVGDVITEDEPEKFYSTIIKKVRFIRGKGSFILHDIPARDHRGMEVAEPEVLGVEFKNVLPVLTAEHRAMIQNALDGSIIENGNVATRDVDVFIGACSEPFYRIYNRFQGYIEAVQLQELRNSIGWLERLGQRKRITYSQEVLTDFRRQDMIWVLALQLPVNPQVVWDVPRSSIANLIMNIATCLPTGEYIAPNPRISSITLTQRITTTGPFAILTGSTPTAQQLNDVRKIYLALMFPGQIILDLKIDPGERMDPAVRMVAGVVGHLLFTAGGRFTNLTQNMARQLDIALNDYLLYMYNTRVQVNYGPTGEPLDFQIGRNQYDCNVFRADFATGTGYNGWATIDVEYRDPAPYVHAQRYIRYCGIDSRELINPTTYGIGMTYHCYNEMLRMLVAAGKDSEAAYFRSMLPFHMVRFARINQIINEDLHSVFSLPDDMFNALLPDLIAGAHQNADPVVLDVSWISLWFAFNRSFEPTHRNEMLEIAPLIESVYASELSVMKVDMRHLSLMQRRFPDVLIQARPSHFWKAVLNDSPEAVKAVMNLSHSHNFINIRDMMRWVLLPSLQPSLKLVLEEEAWAAANDFEDLMLTDQVYMHRDMLPEPRLDDIERFRQEGFYYTNMLEAPPEIDRVVQYTYEIARLQANMGQFRAALRRIMDDDDWIGFGGVLRTVRVKFFDARPPDDILQGLPFSYDTNEKGGLSYATIKYATETTIFYLIYNVEFSNTPDSLVLINPTYTMTKVFINKRIVERVRVGQILAVLNRRFVAYKGKMRIMDITQSLKMGTKLAAPTV
B2: unnamed (parent)
chain 1: B1 chain 2
chain 2: B1 chain 1

Variants of: B1
Experiment: coimmunoprecipitation (IP anti-HA MAb), immunoblot gray-value analysis
Conditions: with partner chain of the complex shown, five experiments, means ± SDs, parent: 100, read off a plot

| Variant | percent of parent |
| --- | --- |
| chain 1 R281A F286A | 1 % of WT |
| chain 1 Y285A F286A | 2 % of WT |
| chain 1 F286A | 18 % of WT |
| chain 1 A282G A284G | 42 % of WT |
| chain 1 R281A | 100 % of WT |
| chain 1 Y285A | 7 % of WT |

Variants of: B2
Experiment: coimmunoprecipitation (IP anti-Flag MAb), immunoblot gray-value analysis
Conditions: with partner chain of the complex shown, five experiments, means ± SDs, parent: 100, read off a plot

| Variant | percent of parent |
| --- | --- |
| chain 2 R281A Y285A F286A | 2 % of WT |
| chain 2 R281A F286A | 19 % of WT |
| chain 2 Y285A | 1 % of WT |
| chain 2 R281A | 130 % of WT |
| chain 2 R281A Y285A | 4 % of WT |
| chain 2 F286A | 57 % of WT |
| chain 2 Y285A F286A | 2 % of WT |
| chain 2 A282G A284G | 45 % of WT |
